To fix the notation:
B1: AB200-R1H26-R2Vk18 (antibody)
heavy: QVQLVQSGAEVKKPGSSVKVSCKASGGSFSNYWMHWVRQAPGQGLEWMGATYRIHSDTFYNQKFKGRVTITADKSTSTAYMELSSLRSEDTAVYYCARGAIYHGYDVLDNWGQGTLVTVSSASTKGPSVFPLAPSSKSTSGGTAALGCLVKDYFPEPVTVSWNSGALTSGVHTFPAVLQSSGLYSLSSVVTVPSSSLGTQTYICNVNHKPSNTKVDKKVEPKSC
light: DIQMTQSPSSLSASVGDRVTITCRASQSISSYINWYQQKPGKAPKLLIYAASSLQSGVPSRFSGSGSGTDFTLTISSLQPEDFATYYCQQFRKIPWTFGQGTKLEIKRTVAAPSVFIFPPSDEQLKSGTASVVCLLNNFYPREAKVQWKVDNALQSGNSQESVTEQDSKDSTYSLSSTLTLSKADYEKHKVYACEVTHQGLSSPVTKSFNRGEC
B2: AB200-R1H26-R2Vk41 (antibody)
heavy: QVQLVQSGAEVKKPGSSVKVSCKASGGSFSNYWMHWVRQAPGQGLEWMGATYRIHSDTFYNQKFKGRVTITADKSTSTAYMELSSLRSEDTAVYYCARGAIYHGYDVLDNWGQGTLVTVSSASTKGPSVFPLAPSSKSTSGGTAALGCLVKDYFPEPVTVSWNSGALTSGVHTFPAVLQSSGLYSLSSVVTVPSSSLGTQTYICNVNHKPSNTKVDKKVEPKSC
light: DIQMTQSPSSLSASVGDRVTITCRASQSISSYINWYQQKPGKAPKLLIYATSNIQSGVPSRFSGSGSGTDFTLTISSLQPEDFATYYCQQFRRLPWTFGQGTKLEIKRTVAAPSVFIFPPSDEQLKSGTASVVCLLNNFYPREAKVQWKVDNALQSGNSQESVTEQDSKDSTYSLSSTLTLSKADYEKHKVYACEVTHQGLSSPVTKSFNRGEC
B3: AB200-R1H26-R2Vk42 (antibody)
heavy: QVQLVQSGAEVKKPGSSVKVSCKASGGSFSNYWMHWVRQAPGQGLEWMGATYRIHSDTFYNQKFKGRVTITADKSTSTAYMELSSLRSEDTAVYYCARGAIYHGYDVLDNWGQGTLVTVSSASTKGPSVFPLAPSSKSTSGGTAALGCLVKDYFPEPVTVSWNSGALTSGVHTFPAVLQSSGLYSLSSVVTVPSSSLGTQTYICNVNHKPSNTKVDKKVEPKSC
light: DIQMTQSPSSLSASVGDRVTITCRASQSISSYINWYQQKPGKAPKLLIYATSNIQSGVPSRFSGSGSGTDFTLTISSLQPEDFATYYCQQYRKIPWSFGQGTKLEIKRTVAAPSVFIFPPSDEQLKSGTASVVCLLNNFYPREAKVQWKVDNALQSGNSQESVTEQDSKDSTYSLSSTLTLSKADYEKHKVYACEVTHQGLSSPVTKSFNRGEC
B4: AB200-R1H26-R2Vk39 (antibody)
heavy: QVQLVQSGAEVKKPGSSVKVSCKASGGSFSNYWMHWVRQAPGQGLEWMGATYRIHSDTFYNQKFKGRVTITADKSTSTAYMELSSLRSEDTAVYYCARGAIYHGYDVLDNWGQGTLVTVSSASTKGPSVFPLAPSSKSTSGGTAALGCLVKDYFPEPVTVSWNSGALTSGVHTFPAVLQSSGLYSLSSVVTVPSSSLGTQTYICNVNHKPSNTKVDKKVEPKSC
light: DIQMTQSPSSLSASVGDRVTITCRASQSISSYINWYQQKPGKAPKLLIYATSNIQSGVPSRFSGSGSGTDFTLTISSLQPEDFATYYCQQYRRLPWSFGQGTKLEIKRTVAAPSVFIFPPSDEQLKSGTASVVCLLNNFYPREAKVQWKVDNALQSGNSQESVTEQDSKDSTYSLSSTLTLSKADYEKHKVYACEVTHQGLSSPVTKSFNRGEC
B5: AB200-R1H26-R2Vk27 (antibody)
heavy: QVQLVQSGAEVKKPGSSVKVSCKASGGSFSNYWMHWVRQAPGQGLEWMGATYRIHSDTFYNQKFKGRVTITADKSTSTAYMELSSLRSEDTAVYYCARGAIYHGYDVLDNWGQGTLVTVSSASTKGPSVFPLAPSSKSTSGGTAALGCLVKDYFPEPVTVSWNSGALTSGVHTFPAVLQSSGLYSLSSVVTVPSSSLGTQTYICNVNHKPSNTKVDKKVEPKSC
light: DIQMTQSPSSLSASVGDRVTITCRASQSISSYLNWYQQKPGKAPKLLIYATSNIQSGVPSRFSGSGSGTDFTLTISSLQPEDFATYYCQQYRKIPWSFGQGTKLEIKRTVAAPSVFIFPPSDEQLKSGTASVVCLLNNFYPREAKVQWKVDNALQSGNSQESVTEQDSKDSTYSLSSTLTLSKADYEKHKVYACEVTHQGLSSPVTKSFNRGEC
B6: AB200-R1H26-R2Vk43 (antibody)
heavy: QVQLVQSGAEVKKPGSSVKVSCKASGGSFSNYWMHWVRQAPGQGLEWMGATYRIHSDTFYNQKFKGRVTITADKSTSTAYMELSSLRSEDTAVYYCARGAIYHGYDVLDNWGQGTLVTVSSASTKGPSVFPLAPSSKSTSGGTAALGCLVKDYFPEPVTVSWNSGALTSGVHTFPAVLQSSGLYSLSSVVTVPSSSLGTQTYICNVNHKPSNTKVDKKVEPKSC
light: DIQMTQSPSSLSASVGDRVTITCRASQSISSYINWYQQKPGKAPKLLIYATSNIQSGVPSRFSGSGSGTDFTLTISSLQPEDFATYYCQQFRKIPWTFGQGTKLEIKRTVAAPSVFIFPPSDEQLKSGTASVVCLLNNFYPREAKVQWKVDNALQSGNSQESVTEQDSKDSTYSLSSTLTLSKADYEKHKVYACEVTHQGLSSPVTKSFNRGEC
B7: AB200-R1H26-R2Vk28 (antibody)
heavy: QVQLVQSGAEVKKPGSSVKVSCKASGGSFSNYWMHWVRQAPGQGLEWMGATYRIHSDTFYNQKFKGRVTITADKSTSTAYMELSSLRSEDTAVYYCARGAIYHGYDVLDNWGQGTLVTVSSASTKGPSVFPLAPSSKSTSGGTAALGCLVKDYFPEPVTVSWNSGALTSGVHTFPAVLQSSGLYSLSSVVTVPSSSLGTQTYICNVNHKPSNTKVDKKVEPKSC
light: DIQMTQSPSSLSASVGDRVTITCRASQSISSYLNWYQQKPGKAPKLLIYATSNIQSGVPSRFSGSGSGTDFTLTISSLQPEDFATYYCQQFRKIPWTFGQGTKLEIKRTVAAPSVFIFPPSDEQLKSGTASVVCLLNNFYPREAKVQWKVDNALQSGNSQESVTEQDSKDSTYSLSSTLTLSKADYEKHKVYACEVTHQGLSSPVTKSFNRGEC
B8: AB200-R1H26-R2Vk2 (antibody)
heavy: QVQLVQSGAEVKKPGSSVKVSCKASGGSFSNYWMHWVRQAPGQGLEWMGATYRIHSDTFYNQKFKGRVTITADKSTSTAYMELSSLRSEDTAVYYCARGAIYHGYDVLDNWGQGTLVTVSSASTKGPSVFPLAPSSKSTSGGTAALGCLVKDYFPEPVTVSWNSGALTSGVHTFPAVLQSSGLYSLSSVVTVPSSSLGTQTYICNVNHKPSNTKVDKKVEPKSC
light: DIQMTQSPSSLSASVGDRVTITCRASQSISSYINWYQQKPGKAPKLLIYAASSLQSGVPSRFSGSGSGTDFTLTISSLQPEDFATYYCQQFRKLPWSFGQGTKLEIKRTVAAPSVFIFPPSDEQLKSGTASVVCLLNNFYPREAKVQWKVDNALQSGNSQESVTEQDSKDSTYSLSSTLTLSKADYEKHKVYACEVTHQGLSSPVTKSFNRGEC
B9: AB200-R1H26-R2Vk40 (antibody)
heavy: QVQLVQSGAEVKKPGSSVKVSCKASGGSFSNYWMHWVRQAPGQGLEWMGATYRIHSDTFYNQKFKGRVTITADKSTSTAYMELSSLRSEDTAVYYCARGAIYHGYDVLDNWGQGTLVTVSSASTKGPSVFPLAPSSKSTSGGTAALGCLVKDYFPEPVTVSWNSGALTSGVHTFPAVLQSSGLYSLSSVVTVPSSSLGTQTYICNVNHKPSNTKVDKKVEPKSC
light: DIQMTQSPSSLSASVGDRVTITCRASQSISSYINWYQQKPGKAPKLLIYATSNIQSGVPSRFSGSGSGTDFTLTISSLQPEDFATYYCQQYRRIPWTFGQGTKLEIKRTVAAPSVFIFPPSDEQLKSGTASVVCLLNNFYPREAKVQWKVDNALQSGNSQESVTEQDSKDSTYSLSSTLTLSKADYEKHKVYACEVTHQGLSSPVTKSFNRGEC
B10: AB200-R1H26-R2Vk38 (antibody)
heavy: QVQLVQSGAEVKKPGSSVKVSCKASGGSFSNYWMHWVRQAPGQGLEWMGATYRIHSDTFYNQKFKGRVTITADKSTSTAYMELSSLRSEDTAVYYCARGAIYHGYDVLDNWGQGTLVTVSSASTKGPSVFPLAPSSKSTSGGTAALGCLVKDYFPEPVTVSWNSGALTSGVHTFPAVLQSSGLYSLSSVVTVPSSSLGTQTYICNVNHKPSNTKVDKKVEPKSC
light: DIQMTQSPSSLSASVGDRVTITCRASQSISSYINWYQQKPGKAPKLLIYATSNLQSGVPSRFSGSGSGTDFTLTISSLQPEDFATYYCQQFRKIPWTFGQGTKLEIKRTVAAPSVFIFPPSDEQLKSGTASVVCLLNNFYPREAKVQWKVDNALQSGNSQESVTEQDSKDSTYSLSSTLTLSKADYEKHKVYACEVTHQGLSSPVTKSFNRGEC
B11: AB200-R1H26-R2Vk47 (antibody)
heavy: QVQLVQSGAEVKKPGSSVKVSCKASGGSFSNYWMHWVRQAPGQGLEWMGATYRIHSDTFYNQKFKGRVTITADKSTSTAYMELSSLRSEDTAVYYCARGAIYHGYDVLDNWGQGTLVTVSSASTKGPSVFPLAPSSKSTSGGTAALGCLVKDYFPEPVTVSWNSGALTSGVHTFPAVLQSSGLYSLSSVVTVPSSSLGTQTYICNVNHKPSNTKVDKKVEPKSC
light: DIQMTQSPSSLSASVGDRVTITCRASQSISSYINWYQQKPGKAPKLLIYATSNLQIGVPSRFSGSGSGTDFTLTISSLQPEDFATYYCQQYRKIPWSFGQGTKLEIKRTVAAPSVFIFPPSDEQLKSGTASVVCLLNNFYPREAKVQWKVDNALQSGNSQESVTEQDSKDSTYSLSSTLTLSKADYEKHKVYACEVTHQGLSSPVTKSFNRGEC
B12: AB200-R1H26-R2Vk37 (antibody)
heavy: QVQLVQSGAEVKKPGSSVKVSCKASGGSFSNYWMHWVRQAPGQGLEWMGATYRIHSDTFYNQKFKGRVTITADKSTSTAYMELSSLRSEDTAVYYCARGAIYHGYDVLDNWGQGTLVTVSSASTKGPSVFPLAPSSKSTSGGTAALGCLVKDYFPEPVTVSWNSGALTSGVHTFPAVLQSSGLYSLSSVVTVPSSSLGTQTYICNVNHKPSNTKVDKKVEPKSC
light: DIQMTQSPSSLSASVGDRVTITCRASQSISSYINWYQQKPGKAPKLLIYATSNLQSGVPSRFSGSGSGTDFTLTISSLQPEDFATYYCQQYRKIPWSFGQGTKLEIKRTVAAPSVFIFPPSDEQLKSGTASVVCLLNNFYPREAKVQWKVDNALQSGNSQESVTEQDSKDSTYSLSSTLTLSKADYEKHKVYACEVTHQGLSSPVTKSFNRGEC

Drawing on patent US12043670B2, “Anti-BCMA antibody-drug conjugates and methods of use” (Eisai R&D Management Co., Ltd., priority 2020, dated 2024), this text covers Tm for twelve molecules.

The series is described as follows: ThermoFluor thermostability (Tm). As to conditions: Light chain screening Round 2; Fab, paired with heavy chain AB200_R1_VH26. In kind it is physicochemical.
In the case of B1, the Tm was 82.729 °C. In the case of B2 it was 83.256 °C; in that of B3, 78.411 °C; in that of B4, 78.907 °C. Consider B5, for which the Tm amounted to 79.104 °C.

With B6, the Tm was determined as 82.001 °C. In the case of B7 it was 82.966 °C. With B8 the figure was 82.119 °C. In the case of B9, the Tm is 79.308 °C. For the molecule B10, the Tm was 83.791 °C. In the case of B11 it was 78.634 °C.

B12: the Tm was determined as 79.374 °C.
